The chains are these.
B1: BODIPY-labelled C51A/E107C SufE (natural protein, E. coli)
chain: MALLPDKEKLLRNFLRCANWEEKYLYIIELGQRLPELRDEDRSPQNSIQGAQSQVWIVMRQNAQGIIELQGDSDAAIVKGLIAVVFILYDQMTPQDIVNFDVRPWFCKMALTQHLTPSRSQGLEAMIRAIRAKAAALS
modifications: BODIPY FL maleimide on the cysteine at 107 (E107C); labelling efficiency between 60 and 80%
notes: SufE transpersulfurase, E. coli, UniProt P76194, with C51A and E107C; gene in pET-21(a); No tag named; also called labeled C51A/E107C SufE; BODPIY-C51A/E107C SufE; source: E. coli BL21(DE3), pET21, purified (Q-XL, Superdex 200), labelled with BODIPY FL maleimide
B2: N99A SufS (enzyme, E. coli)
chain: MIFSVDKVRADFPVLSREVNGLPLAYLDSAASAQKPSQVIDAEAEFYRHGYAAVHRGIHTLSAQATEKMENVRKRASLFINARSAEELVFVRGTTEGIALVANSWGNSNVRAGDNIIISQMEHHANIVPWQMLCARVGAELRVIPLNPDGTLQLETLPTLFDEKTRLLAITHVSNVLGTENPLAEMITLAHQHGAKVLVDGAQAVMHHPVDVQALDCDFYVFSGHKLYGPTGIGILYVKEALLQEMPPWEGGGSMIATVSLSEGTTWTKAPWRFEAGTPNTGGIIGLGAALEYVSALGLNNIAEYEQNLMHYALSQLESVPDLTLYGPQNRLGVIAFNLGKHHAYDVGSFLDNYGIAVRTGHHCAMPLMAYYNVPAMCRASLAMYNTHEEVDRLVTGLQRIHRLLG
notes: SufS cysteine desulfurase, E. coli, UniProt P77444, with N99A; gene in pET-21(a); Carries the PLP cofactor; No tag named; Dimer in the crystal structure; also called SufS N99A; source: E. coli BL21(DE3)Δsuf, pET21, purified (Q-XL, Phenyl HP, Superdex 200)
B3: N99D SufS (enzyme, E. coli)
chain: B2 chain with A99D
notes: SufS cysteine desulfurase, E. coli, UniProt P77444, with N99D; gene in pET-21(a); Carries the PLP cofactor; No tag named; Dimer in the crystal structure; residues 248 to 268 have no electron density; also called SufS N99D; source: E. coli BL21(DE3)Δsuf, pET21, purified (Q-XL, Phenyl HP, Superdex 200)

For data set [1], the target named is SufE (Escherichia coli) (UniProt P76194). As to conditions: cited from earlier work.
The target in data set [2] is SufS (Escherichia coli, UniProt P77444). As to conditions: no SufE, 500 μM cysteine, with and without 2 mM TCEP, pH 8.0, 25 °C.
For data set [3], the target named is B2. Kind of data set: fluorescence polarisation; SufS (0.2-40 μM) titrated against 100 nM BODIPY-labelled C51A/E107C SufE; no cysteine; 50 mM MOPS pH 8, 150 mM NaCl, 0.1 mg/ml BSA; 30 min at room temperature; black 96-well plates; fit to a single-affinity site (Equation 3). As to conditions: both partners purified. A general note: In fluorescence polarisation assays a small probe gives low polarisation when free and higher when bound to something large.

The target in data set [4] is T1, SufS cysteine desulfurase, wild type (E. coli, UniProt P77444 1-406).
T1 construct: SufS cysteine desulfurase, E. coli, UniProt P77444; gene in pET-21(a); PLP-dependent enzyme; as purified it carries the pyridoxal-5'-phosphate cofactor (internal aldimine); also called WT SufS; wt SufS; source: E. coli BL21(DE3)Δsuf, pET21, purified (Q-XL, Phenyl HP, Superdex 200)
T1 sequence: B2 chain with A99N
The data set is described as above. As to conditions: both partners purified.

For data set [5], the target named is B3. The data set is described as above. As to conditions: both partners purified.
Data set [6] deals with B2. Kind of data set: fluorescence polarisation; as without cysteine, but in the presence of 500 μM cysteine: SufS titrated against 100 nM BODIPY-labelled C51A/E107C SufE; 50 mM MOPS pH 8, 150 mM NaCl, 0.1 mg/ml BSA; room temperature. To be noted: both partners purified.
Data set [7] deals with T1, SufS cysteine desulfurase, wild type. The data set is described as above. As to conditions: both partners purified.
Data set [8] addresses B3. The description is as above. As to conditions: both partners purified.
The target of data set [9] is T2, D346R SufS (E. coli, UniProt P77444 1-406, D346R).
T2 construct: SufS cysteine desulfurase, E. coli, UniProt P77444, with D346R; gene in pET-21(a); No tag named; nothing is said of the oligomeric state of this variant; source: E. coli BL21(DE3)Δsuf, pET21, purified (Q-XL, Phenyl HP, Superdex 200)
T2 sequence: B2 chain with A99N, D346R
The data set is described as follows: fluorescence polarisation; SufS (0.2-40 μM) titrated against 100 nM BODIPY-labelled C51A/E107C SufE; no cysteine; 50 mM MOPS pH 8, 150 mM NaCl, 0.1 mg/ml BSA; 30 min at room temperature; black 96-well plates; fit to a single-affinity site (Equation 3). To be noted: both partners purified.

Data set [10] concerns the molecule itself. Kind of data set: crystal structure; sitting drop vapor diffusion at 20 °C, 4 to 4.5 M NaCl, 100 mM MES pH 6.5; SufS variant alone, dimer.

Numbering of substitutions follows the chain as printed. Numbers in names are those of the source. Some results are limits rather than exact numbers.

What is called Kd is the free concentration of one partner at which half of the binding sites on the other are occupied at equilibrium, for simple one-to-one binding.

Chain of SufS (P77444 whole entry): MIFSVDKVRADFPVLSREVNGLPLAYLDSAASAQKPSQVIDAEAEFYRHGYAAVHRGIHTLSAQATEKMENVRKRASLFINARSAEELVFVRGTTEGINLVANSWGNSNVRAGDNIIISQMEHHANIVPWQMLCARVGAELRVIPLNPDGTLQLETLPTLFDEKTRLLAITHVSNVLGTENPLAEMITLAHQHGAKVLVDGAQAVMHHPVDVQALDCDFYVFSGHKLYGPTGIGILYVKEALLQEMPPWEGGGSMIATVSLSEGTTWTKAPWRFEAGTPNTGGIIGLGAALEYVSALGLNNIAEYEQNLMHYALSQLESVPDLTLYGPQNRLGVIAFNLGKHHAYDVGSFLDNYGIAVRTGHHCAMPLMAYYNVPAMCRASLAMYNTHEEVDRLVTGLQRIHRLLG

Turning to SufS (from UniProt P77444), in data set [1], the Kd was 500 nM.
Turning to `N[C@@H](CS)C(=O)O` [cysteine], the “alanine production plate-reader assay; UV-visible cysteine-PLP intermediates” value in data set [2] is on record as “WT SufS is also capable of producing alanine”.
On to B1, for which the Kd turned out to be 6.2 ± 1.8 µM in data set [3]; 5.2 µM in data set [4]; 9.9 ± 3 µM in data set [5]; 3.1 ± 0.6 µM in data set [6]; 600 ± 200 nM in [7]; 3.3 ± 0.7 µM in data set [8]. In addition, in [9], the Kd is above 40 µM.
As to B2, in data set [10], the binding result was “binds”.
Still for that read-out and setting: the value for B3 was “binds”.

The record behind these values is paper PMC10011822 (The Journal of Biological Chemistry, 2023).
